Patent US20220251236A1 (Boehringer Ingelheim, published 2022)

B1: DLL3#2/CD3#1 (bispecific antibody, human IgG1, kappa, lambda, L234A L235A)
chain 1: DIQMTQSPSAMSASVGDRVTITCRASQGISNYLAWFQQKPGKVPEPLIYAASSLQSGVPSRFSGSGSVTEFTLTISSLQPEDFATYYCLQHNSSPYTFGQGTKLEIKRTVAAPSVFIFPPSDEQLKSGTASVVCLLNNFYPREAKVQWKVDNALQSGNSQESVTEQDSKDSTYSLSSTLTLSKADYEKHKVYACEVTHQGLSSPVTKSFNRGECGGGGSEGKSSGSGSESKSTEGKSSGSGSESKSTGGGGSQVQLVQSGAEVKKPGASVKVSCKASGYTFTSYYMHWVRQAPGQGLEWMGIINPSGGSTSYAQKFQGRVTMTRDTSTSTVYMELSSLRSEDTAVYYCARGEAVGGNYYYYGMDVWGQGTTVTVSSASTKGPSVFPLAPSSKSTSGGTAALGCLVKDYFPEPVTVSWNSGALTSGVHTFPAVLQSSGLYSLSSVVTVPSSSLGTQTYICNVNHKPSNTKVDKRVEPKSCDKTHTCPPCPAPEAAGGPSVFLFPPKPKDTLMISRTPEVTCVVVDVSHEDPEVKFNWYVDGVEVHNAKTKPREEQYNSTYRVVSVLTVLHQDWLNGKEYKCKVSNKALPAPIEKTISKAKGQPREPQVYTLPPSREEMTKNQVSLWCLVKGFYPSDIAVEWESNGQPENNYKTTPPVLDSDGSFFLYSKLTVDKSRWQQGNVFSCSVMHEALHNHYTQKSLSLSPG
chain 2: EAVVTQEPSLTVSPGGTVTLTCRSSTGAVTTSNYANWVQEKPGQLPRGLIGGTNKRAPWVPARFSGSLLGGKAALTLSGAQPEDEAEYFCALWYSNLWVFGGGTKLTVLGQPKAAPSVTLFPPSSEELQANKATLVCLISDFYPGAVKVAWKADGSPVNTGVETTTPSKQSNNKYAASSYLSLTPEQWKSHRSYSCQVTHEGSTVEKTVAPAECSGGGGSEGKSSGSGSESKSTEGKSSGSGSESKSTGGGGSEVQLVESGGGLVQPGGSLKLSCAASGFTFNTYAMNWVRQAPGKGLEWVARIRSKYNNYATYYADSVKDRFTISRDDSKNTAYLQMNNLKTEDTAVYYCVRHGNFGNSYVSWFAYWGQGTLVTVSAASTKGPSVFPLAPSSKSTSGGTAALGCLVKDYFPEPVTVSWNSGALTSGVHTFPAVLQSSGLYSLSSVVTVPSSSLGTQTYICNVNHKPSNTKVDKRVEPKSCDKTHTCPPCPAPEAAGGPSVFLFPPKPKDTLMISRTPEVTCVVVDVSHEDPEVKFNWYVDGVEVHNAKTKPREEQYNSTYRVVSVLTVLHQDWLNGKEYKCKVSNKALPAPIEKTISKAKGQPREPQVYTLPPSREEMTKNQVSLSCAVKGFYPSDIAVEWESNGQPENNYKTTPPVLDSDGSFFLVSKLTVDKSRWQQGNVFSCSVMHEALHNRFTQKSLSLSPG
notes: Heterodimer of one DLL3 chain and one CD3 chain (scFab-Fc, knob-in-hole)
B2: DLL3#3/CD3#1 (bispecific antibody, human IgG1, kappa, lambda, L234A L235A)
chain 1: DIQMTQSPSAMSASVGDRVTITCRASQGISNYLVWFQQKPGKAPKRLIYAVSSLYSGVPSRFSGSGSGTEFTLTISSLQPEDFATYYCLQHDSYPYTFGQGTKLEIKRTVAAPSVFIFPPSDEQLKSGTASVVCLLNNFYPREAKVQWKVDNALQSGNSQESVTEQDSKDSTYSLSSTLTLSKADYEKHKVYACEVTHQGLSSPVTKSFNRGECGGGGSEGKSSGSGSESKSTEGKSSGSGSESKSTGGGGSQVQLVQSGAEVKKPGASVKVSCKASGYTFTSYYVHWVRQAPGQGLEWMVIINPGGGTTSYAQKFLGRVTMTRDTSTNTVYMELKSLRSEDTAVYYCARGEAVTGNYFYYGMDVWGQGTTVTVSSASTKGPSVFPLAPSSKSTSGGTAALGCLVKDYFPEPVTVSWNSGALTSGVHTFPAVLQSSGLYSLSSVVTVPSSSLGTQTYICNVNHKPSNTKVDKRVEPKSCDKTHTCPPCPAPEAAGGPSVFLFPPKPKDTLMISRTPEVTCVVVDVSHEDPEVKFNWYVDGVEVHNAKTKPREEQYNSTYRVVSVLTVLHQDWLNGKEYKCKVSNKALPAPIEKTISKAKGQPREPQVYTLPPSREEMTKNQVSLWCLVKGFYPSDIAVEWESNGQPENNYKTTPPVLDSDGSFFLYSKLTVDKSRWQQGNVFSCSVMHEALHNHYTQKSLSLSPG
chain 2: B1 chain 2
notes: as for B1
B3: DLL3#13/CD3#1 (bispecific antibody, human IgG1, kappa, lambda, L234A L235A)
chain 1: DVLMTQTPLSLPVSLGDQAAISCRSSQSIVHSNGNTYLEWYLQKPGQSPKVLIYKVSNRFSGVPDRFSGSGSGTDFTLKISRVEAEDLGVYYCFQGSHVPYTFGGGTKLEIKRTVAAPSVFIFPPSDEQLKSGTASVVCLLNNFYPREAKVQWKVDNALQSGNSQESVTEQDSKDSTYSLSSTLTLSKADYEKHKVYACEVTHQGLSSPVTKSFNRGECGGGGSEGKSSGSGSESKSTEGKSSGSGSESKSTGGGGSQIQLVQSGPELKKPGETVKISCKASGYTFTNYGVTWVKQAPGKGLKWMGWINTYSGAPTYADDFNGRFALSLETSASTAYLQINNLKNEDTATYFCARLDDYDLYYFDYWGQGTALTVSSASTKGPSVFPLAPSSKSTSGGTAALGCLVKDYFPEPVTVSWNSGALTSGVHTFPAVLQSSGLYSLSSVVTVPSSSLGTQTYICNVNHKPSNTKVDKRVEPKSCDKTHTCPPCPAPEAAGGPSVFLFPPKPKDTLMISRTPEVTCVVVDVSHEDPEVKFNWYVDGVEVHNAKTKPREEQYNSTYRVVSVLTVLHQDWLNGKEYKCKVSNKALPAPIEKTISKAKGQPREPQVYTLPPSREEMTKNQVSLWCLVKGFYPSDIAVEWESNGQPENNYKTTPPVLDSDGSFFLYSKLTVDKSRWQQGNVFSCSVMHEALHNHYTQKSLSLSPG
chain 2: B1 chain 2
notes: as for B1
B4: DLL3#18/CD3#1 (bispecific antibody, human IgG1, kappa, lambda, L234A L235A)
chain 1: DIQMTQSPASLAASVGETVTITCRASENIYYSLAWYQQKQGKSPQLLIYNANSLEDGVPSRFSGSGSGTQYSMKINNMQPEDTATYFCKQAYDVPLTFGAGTKLELKRTVAAPSVFIFPPSDEQLKSGTASVVCLLNNFYPREAKVQWKVDNALQSGNSQESVTEQDSKDSTYSLSSTLTLSKADYEKHKVYACEVTHQGLSSPVTKSFNRGECGGGGSEGKSSGSGSESKSTEGKSSGSGSESKSTGGGGSQVQLQQSGPDLVKPGASVKMSCEASGYTFTAYFIHWVKQKPGQGLEWIGYIDPFNDDTNYNVKFKGKATLTSDTSSSIAYMELSSLTSEDSSFYYCARGTSATLDYWGHGTTLTVSSASTKGPSVFPLAPSSKSTSGGTAALGCLVKDYFPEPVTVSWNSGALTSGVHTFPAVLQSSGLYSLSSVVTVPSSSLGTQTYICNVNHKPSNTKVDKRVEPKSCDKTHTCPPCPAPEAAGGPSVFLFPPKPKDTLMISRTPEVTCVVVDVSHEDPEVKFNWYVDGVEVHNAKTKPREEQYNSTYRVVSVLTVLHQDWLNGKEYKCKVSNKALPAPIEKTISKAKGQPREPQVYTLPPSREEMTKNQVSLWCLVKGFYPSDIAVEWESNGQPENNYKTTPPVLDSDGSFFLYSKLTVDKSRWQQGNVFSCSVMHEALHNHYTQKSLSLSPG
chain 2: B1 chain 2
notes: as for B1

Key:
[1] = molecular target: T1, trypsin inhibitor from glycine max soybean (Glycine max (soybean)); assay: SPR (Biacore T200), trypsin inhibitor on CM5 chip, sample at 1 µM
T1 construct: also called Tryp
T1 sequence (P01070 25-205): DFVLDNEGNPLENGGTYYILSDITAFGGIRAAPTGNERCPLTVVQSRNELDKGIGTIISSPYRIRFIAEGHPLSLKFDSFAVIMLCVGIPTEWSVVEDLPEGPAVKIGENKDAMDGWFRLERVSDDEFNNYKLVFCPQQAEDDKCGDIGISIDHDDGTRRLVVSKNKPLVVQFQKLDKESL
Excerpt: To prepare the surface for the non-specific binding experiment, chicken egg white lysozyme and trypsin inhibitor from glycine max soybean were coupled manually to a series S CM5 chip with the surface density of 3000-5000 RU using the amine coupling kit according to the manufacture instructions.

[2] = molecular target: T2, FLAG-tagged human DLL1 full length (human, UniProt O00548 1-723); assay: flow cytometry on HEK293 cells expressing human DLL1 (HEK293-huDLL1), PE anti-human secondary, control: secondary antibody only
T2 construct: also called human DLL1 on HEK293 cells
T2 sequence: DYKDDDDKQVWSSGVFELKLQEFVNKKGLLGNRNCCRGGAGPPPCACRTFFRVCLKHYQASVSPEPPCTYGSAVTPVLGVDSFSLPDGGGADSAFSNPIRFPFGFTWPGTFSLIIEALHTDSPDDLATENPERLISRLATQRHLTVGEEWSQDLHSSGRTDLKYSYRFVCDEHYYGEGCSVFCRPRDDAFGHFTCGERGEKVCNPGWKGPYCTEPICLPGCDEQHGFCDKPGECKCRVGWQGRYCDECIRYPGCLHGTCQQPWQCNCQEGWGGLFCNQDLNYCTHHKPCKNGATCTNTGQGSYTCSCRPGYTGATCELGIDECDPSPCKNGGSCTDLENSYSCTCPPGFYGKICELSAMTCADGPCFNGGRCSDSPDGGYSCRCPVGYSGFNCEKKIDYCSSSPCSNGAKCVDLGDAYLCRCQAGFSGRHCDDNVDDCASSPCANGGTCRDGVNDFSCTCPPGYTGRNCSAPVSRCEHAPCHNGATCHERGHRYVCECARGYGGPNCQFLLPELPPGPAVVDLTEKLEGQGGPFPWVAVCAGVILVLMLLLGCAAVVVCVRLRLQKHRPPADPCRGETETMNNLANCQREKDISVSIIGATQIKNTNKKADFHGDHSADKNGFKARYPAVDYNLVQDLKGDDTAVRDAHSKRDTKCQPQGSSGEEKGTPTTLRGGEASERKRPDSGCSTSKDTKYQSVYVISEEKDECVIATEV
Experimental: Bound molecules were detected with PE-conjugated anti-human secondary antibody (Sigma-Aldrich, #P8047). As negative control, cells were incubated with secondary antibody only. The samples were measured by flow-cytometry.

Human DLL3-His = molecular target: T3, Human DLL3-His (human, UniProt Q9NYJ7 27-492); assay: SPR (ProteOn XPR36), bispecific captured on protein A/G, hu DLL3 as analyte, Example 4B
T3 construct: also called huDLL3-His; hu DLL3
T3 sequence: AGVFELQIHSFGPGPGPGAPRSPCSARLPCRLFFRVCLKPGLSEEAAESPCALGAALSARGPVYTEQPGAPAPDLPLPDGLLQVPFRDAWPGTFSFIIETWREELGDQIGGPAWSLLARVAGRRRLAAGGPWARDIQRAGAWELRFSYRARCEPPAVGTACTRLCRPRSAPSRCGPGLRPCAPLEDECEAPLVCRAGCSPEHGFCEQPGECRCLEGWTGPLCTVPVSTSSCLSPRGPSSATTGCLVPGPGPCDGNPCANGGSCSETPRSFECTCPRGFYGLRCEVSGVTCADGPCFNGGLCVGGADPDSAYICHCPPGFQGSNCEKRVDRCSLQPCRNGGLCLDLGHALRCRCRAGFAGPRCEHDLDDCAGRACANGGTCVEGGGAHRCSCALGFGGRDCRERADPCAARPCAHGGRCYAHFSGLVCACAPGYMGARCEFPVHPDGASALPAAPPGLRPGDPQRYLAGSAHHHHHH
How it was run: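 Bispecific constructs captured on protein A/G for 200 s at 30 μl/min, baseline stabilized with PBS-T-EDTA. Human DLL3 analyte injected 300 s at 30 μl/min; dissociation followed for 1800 s.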

[3] = molecular target: T4, human DLL3 (endogenous, on SCLC cell lines NCI-H82 and SHP77 and in SCLC tissue) (human, UniProt Q9NYJ7 27-618); assay: flow cytometry titration on SHP77 cells, PE anti-human secondary, x-fold over background
T4 construct: whole, on cells; also called SCLC cell lines expressing DLL3
T4 sequence (looked up): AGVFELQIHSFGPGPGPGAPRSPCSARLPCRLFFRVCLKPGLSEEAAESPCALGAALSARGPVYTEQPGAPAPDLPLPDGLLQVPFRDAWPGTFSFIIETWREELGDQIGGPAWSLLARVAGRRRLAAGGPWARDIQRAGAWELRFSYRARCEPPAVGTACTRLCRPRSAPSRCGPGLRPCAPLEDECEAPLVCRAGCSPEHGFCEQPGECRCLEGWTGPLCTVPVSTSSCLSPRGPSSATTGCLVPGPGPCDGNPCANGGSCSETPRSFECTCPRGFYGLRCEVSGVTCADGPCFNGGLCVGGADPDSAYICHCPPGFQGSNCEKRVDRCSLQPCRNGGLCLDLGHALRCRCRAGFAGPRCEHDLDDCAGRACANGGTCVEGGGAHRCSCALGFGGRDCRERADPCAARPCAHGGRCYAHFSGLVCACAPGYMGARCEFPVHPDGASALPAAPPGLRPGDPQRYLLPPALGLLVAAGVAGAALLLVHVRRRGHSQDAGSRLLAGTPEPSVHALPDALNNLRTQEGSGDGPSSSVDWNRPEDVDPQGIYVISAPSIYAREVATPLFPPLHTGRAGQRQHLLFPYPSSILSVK
Excerpt: Cells (T cells or human SCLC cells) were stained with increasing concentrations of two-step purified DLL3/CD3 binding proteins with increasing concentrations in FACS buffer (PBS/0.5% BSA/0.05% sodium azide). Bound molecules were detected with PE-conjugated anti-human secondary antibody (Sigma-Aldrich, #P8047).

Binder | Non-specific binding (RU) [1] [RU] | binding result [2] | Kd (Human DLL3-His) [nM] | EC50 (read off the curve) [3] [nM]
B1 | 2 | no binding (tested: 1.6 nM) | 0.091 | 
B2 | 85 | no binding (tested: 1.6 nM) | 0.075 | 
B3 | 3 |  | 0.023 | ~2
B4 | 81 |  | < 0.02 | ~2
